Source: patent publication US20190307836A1 (Bicycle, published 2019)
Starred links: 1 amine or outer side, 2 acyl side, 3 side chain; linkers in the order of their positions; H or OH if unused. Positions of bridges follow the written chain, without caps; N, C: chain ends. Non-standard residues stand in square brackets, D forms with d. Chains are numbered I, II in the order given. No end group written: not given here. *: point of attachment. TATA = O=C(CC[*:1])N1CN(C(=O)CC[*:2])CN(C(=O)CC[*:3])C1; 1Nal = N[C@@H](Cc1cccc2ccccc12)C(=O)O; Hyp = O=C(O)[C@@H]1C[C@@H](O)CN1; hArg = N=C(N)NCCCC[C@H](N)C(=O)O; tBuAla = CC(C)(C)C[C@H](N)C(=O)O; Nle = CCCC[C@H](N)C(=O)O; Pent4ynoyl = C#CCCC(=O)*; Dap = NC[C@H](N)C(=O)O; βAla = NCCC(=O)O; Sar = CNCC(=O)O

The binders below were run against CD137 expressed on cells (CHO cells expressing CD137; Jurkat cells of the Promega CD137 luciferase reporter assay) (UniProt Q07011) (assay: cell-based or functional assay).
Sequence of CD137 expressed on cells (CHO cells expressing CD137; Jurkat cells of the Promega CD137 luciferase reporter assay) (Q07011 24-255 limits assumed): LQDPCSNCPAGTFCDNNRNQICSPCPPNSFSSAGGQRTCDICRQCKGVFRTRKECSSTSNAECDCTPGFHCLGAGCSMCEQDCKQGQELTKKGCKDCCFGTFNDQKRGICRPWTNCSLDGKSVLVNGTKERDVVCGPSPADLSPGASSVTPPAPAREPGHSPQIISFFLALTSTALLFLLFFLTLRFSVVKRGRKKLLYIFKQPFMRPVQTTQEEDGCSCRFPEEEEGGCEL

Row | Binder | EC50 (nM), CD137 reporter assay, co-culture with PC3 (EphA2) | Fold Induction over Background, CD137 reporter assay, co-culture with PC3 (EphA2)
1 | heterotandem bicyclic peptide complex BCY10568 (linker I:14-I:21-I:28, II:1-II:8-II:15 via TATA; not fully specified (C-terminus); numbers in words are those of the source; also: chains joined by PEG12 linker, triazole from PYA, linker on chain 2 Lys4 side chain) peptide 1: {Pent4ynoyl-βAla}-[Sar][Sar][Sar][Sar][Sar][Sar][Sar][Sar][Sar][Sar]A[hArg]DC[Hyp]LVNPLCLHP[dD]W[hArg]C peptide 2: Ac-C[tBuAla]PK[dA]PYCFADPY[Nle]CA | 0.25 nM | 32 fold
2 | heterotandem bicyclic peptide complex BCY10575 (linker I:4-I:11-I:18, II:1-II:8-II:15 via TATA; not fully specified (C-terminus); also: chains joined by PEG5 linker on chain 1 N-terminus, triazole to D-Lys(PYA)) peptide 1: A[hArg]DC[Hyp]LVNPLCLHP[dD]W[hArg]C peptide 2: Ac-C[tBuAla]PE[dK](Pent4ynoyl)PYCFADPY[Nle]CA | 0.62 nM | 38 fold
3 | heterotandem bicyclic peptide complex BCY10570 (linker I:14-I:21-I:28, II:1-II:8-II:15 via TATA; not fully specified (C-terminus); numbers in words are those of the source; also: chains joined by PEG12 linker, triazole from PYA, linker on chain 2 D-Lys side chain) peptide 1: {Pent4ynoyl-βAla}-[Sar][Sar][Sar][Sar][Sar][Sar][Sar][Sar][Sar][Sar]A[hArg]DC[Hyp]LVNPLCLHP[dD]W[hArg]C peptide 2: Ac-C[tBuAla]PE[dK]PYCFADPY[Nle]CA | 0.41 nM | 38 fold
4 | heterotandem bicyclic peptide complex BCY10574 (linker I:4-I:11-I:18, II:1-II:8-II:15 via TATA; not fully specified (C-terminus); also: chains joined by PEG5 linker on chain 1 N-terminus, triazole to K(PYA)) peptide 1: A[hArg]DC[Hyp]LVNPLCLHP[dD]W[hArg]C peptide 2: Ac-C[tBuAla]PK(Pent4ynoyl)[dA]PYCFADPY[Nle]CA | 1 nM | 32 fold

Each binder was assayed against CD137 expressed on cells (CHO cells expressing CD137); Jurkat cells of the Promega CD137 luciferase reporter … (UniProt Q07011 24-255, limits assumed) (assay: cell-based or functional assay).
Sequence of CD137 expressed on cells (CHO cells expressing CD137); Jurkat cells of the Promega CD137 luciferase reporter … (Q07011 24-255 limits assumed): as above

Row | Binder | EC50 (nM), CD137 reporter assay, co-culture with H1376 (Nectin4) | Fold Induction over Background, CD137 reporter assay, co-culture with H1376 (Nectin4) | EC50 (nM), CD137 reporter assay, co-culture with RKO (PD-L1) | Fold Induction over Background, CD137 reporter assay, co-culture with RKO (PD-L1) | Fold Induction over Background, CD137 reporter assay, co-culture with MC38 (mouse PD-L1)
5 | heterotandem bicyclic peptide complex BCY10569 (linker I:11-I:15-I:25, II:1-II:8-II:15 via TATA; not fully specified (C-terminus, bridges); numbers in words are those of the source; also: chains joined by PEG12 linker, triazole from PYA, linker on chain 2 D-Lys side chain) peptide 1: {Pent4ynoyl-βAla}-[Sar][Sar][Sar][Sar][Sar][Sar][Sar][Sar][Sar][Sar]CP[1Nal][dD]CM[hArg]DWSTP[Hyp]WC peptide 2: Ac-C[tBuAla]PE[dK]PYCFADPY[Nle]CA | 1.2 nM | 52 fold | – | – | –
6 | heterotandem bicyclic peptide complex BCY11376 (not fully specified; BCY8919: N-terminal acetyl; tBuAla1, Lys3 bearing the linker, D-Ala4, Nle12; Ci, Cii, Ciii on TATA scaffold; BCY10861: N-terminal acetyl; K(PYA)9 bearing the linker; Ci, Cii, Ciii on TATA scaffold) peptide 1: SDKCSAGWLTMCQXLHLCPSH peptide 2: CXPKAPYCFADPYXCA | – | – | 127 nM | – | –
7 | heterotandem bicyclic peptide complex BCY11377 (not fully specified; BCY8920: N-terminal acetyl; tBuAla1, D-Lys4 bearing the linker, Nle12; Ci, Cii, Ciii on TATA scaffold; BCY10861: N-terminal acetyl; K(PYA)9 bearing the linker; Ci, Cii, Ciii on TATA scaffold) peptide 1: SDKCSAGWLTMCQXLHLCPSH peptide 2: CXPEKPYCFADPYXCA | – | – | 40 nM | – | –
8 | heterotandem bicyclic peptide complex BCY11017 (not fully specified; BCY8919: N-terminal acetyl; tBuAla1, Lys3 bearing the linker, D-Ala4, Nle12; Ci, Cii, Ciii on TATA scaffold; BCY10861: N-terminal acetyl; K(PYA)9 bearing the linker; Ci, Cii, Ciii on TATA scaffold) peptide 1: SDKCSAGWLTMCQXLHLCPSH peptide 2: CXPKAPYCFADPYXCA | – | – | 66 nM | – | –
9 | heterotandem bicyclic peptide complex BCY10578 (linker I:11-I:15-I:25, II:1-II:8-II:15 via TATA; not fully specified (C-terminus); numbers in words are those of the source; also: linker to a chain's N/C-terminus via CH2) peptide 1: {Pent4ynoyl-βAla}-[Sar][Sar][Sar][Sar][Sar][Sar][Sar][Sar][Sar][Sar]CP[1Nal][dD]CM[hArg]DWSTP[Hyp]WC peptide 2: Ac-C[tBuAla]PE[dA]PYCFADPY[Nle]C[Dap] | 0.42 nM | – | – | – | –
10 | heterotandem bicyclic peptide complex BCY10582 (not fully specified; BCY9172: N-terminal acetyl; tBuAla1, D-Ala4, Nle12; C-terminal Dap (diaminopropionic acid) bearing the linker; Ci, Cii, Ciii on TATA scaffold; BCY10045: free N-terminus (NH2-); K(PYA)9 bearing the linker; Ci, Cii, Ciii on TATA scaffold) peptide 1: SDKCSAGWLTMCQXLHLC peptide 2: CXPEAPYCFADPYXC | – | – | 28 nM | 4 fold | –
11 | heterotandem bicyclic peptide complex BCY11379 (not fully specified; BCY8919: N-terminal acetyl; tBuAla1, Lys3 bearing the linker, D-Ala4, Nle12; Ci, Cii, Ciii on TATA scaffold; BCY10861: N-terminal acetyl; K(PYA)9 bearing the linker; Ci, Cii, Ciii on TATA scaffold) peptide 1: SDKCSAGWLTMCQXLHLCPSH peptide 2: CXPKAPYCFADPYXCA | – | – | 68 nM | – | –
12 | heterotandem bicyclic peptide complex BCY10567 (linker I:11-I:15-I:25, II:1-II:8-II:15 via TATA; not fully specified (C-terminus, bridges); numbers in words are those of the source; also: chains joined by PEG12 linker, triazole from PYA, linker on chain 2 Lys4 side chain) peptide 1: {Pent4ynoyl-βAla}-[Sar][Sar][Sar][Sar][Sar][Sar][Sar][Sar][Sar][Sar]CP[1Nal][dD]CM[hArg]DWSTP[Hyp]WC peptide 2: Ac-C[tBuAla]PK[dA]PYCFADPY[Nle]CA | 1.7 nM | 45 fold | – | – | –
13 | heterotandem bicyclic peptide complex BCY11380 (not fully specified; BCY8920: N-terminal acetyl; tBuAla1, D-Lys4 bearing the linker, Nle12; Ci, Cii, Ciii on TATA scaffold; BCY10861: N-terminal acetyl; K(PYA)9 bearing the linker; Ci, Cii, Ciii on TATA scaffold) peptide 1: SDKCSAGWLTMCQXLHLCPSH peptide 2: CXPEKPYCFADPYXCA | – | – | 34 nM | – | –
14 | heterotandem bicyclic peptide complex BCY10580 (linker I:14-I:22-I:28, II:1-II:8-II:15 via TATA; not fully specified (C-terminus); numbers in words are those of the source; also: linker to a chain's N/C-terminus via PEG12) peptide 1: {Pent4ynoyl-βAla}-[Sar][Sar][Sar][Sar][Sar][Sar][Sar][Sar][Sar][Sar]SDKCSAGWLTMCQKLHLC peptide 2: Ac-C[tBuAla]PE[dA]PYCFADPY[Nle]C[Dap] | – | – | 28 nM | 3 fold | –
15 | heterotandem bicyclic peptide complex BCY11018 (not fully specified; BCY8920: N-terminal acetyl; tBuAla1, D-Lys4 bearing the linker, Nle12; Ci, Cii, Ciii on TATA scaffold; BCY10861: N-terminal acetyl; K(PYA)9 bearing the linker; Ci, Cii, Ciii on TATA scaffold) peptide 1: SDKCSAGWLTMCQXLHLCPSH peptide 2: CXPEKPYCFADPYXCA | – | – | 27 nM | – | –
16 | heterotandem bicyclic peptide complex BCY8939 (BCY7732: N-terminal acetyl; Nle12; C-terminal Dap (diaminopropionic acid) bearing the linker; Ci, Cii, Ciii on TATA scaffold; BCY8938: N-terminal [PYA]-[B-Ala]-[Sar10]- (linker on PYA); HArg1; Ci, Cii, Ciii on TATA scaffold) peptide 1: CXDWCHWTFSHGHPC peptide 2: ACIEEGQYCFADPYXC | – | – | – | – | < 2 fold
